From patent US20160039936A1, “FIBROBLAST GROWTH FACTOR RECEPTOR INHIBITION FOR THE TREATMENT OF DISEASE” (UNIVERSITY OF MIAMI, priority 2011, published 2016) come the findings set out here.

Assay [1] deals with isolated neonatal rat ventricular cardiac myocytes (NRVM). Put plainly: Surface area (hypertrophy) of isolated NRVM, immunocytochemistry and morphometry (Examples 1-2). It is filed as cell-based. The settings on record: for cell surface area: 48 h incubation with the FGF alone. The procedure:
NRVM were isolated using a standard isolation system (Worthington Biochemical Corporation) (Toraason et al., Toxicology, 56(1):107-117, 1989). Hearts from 1-2 day old Sprague Dawley rats (Charles River) were harvested, minced in calcium- and magnesium-free Hank's Balanced Salt Solution (HBSS), and the tissue digested with 50 μg/ml trypsin at 4° C. for 20-24 hours. Soybean trypsin inhibitor in HBSS was added and the tissue was further digested with collagenase (in Leibovitz L-15 medium) under slow rotation (15 rpm) at 37° C. for 45 minutes. Cells were released by gently triturating the suspension 20 times with a standard 10 ml plastic serological pipette and filtering it twice through a cell strainer (70 μm, BD Falcon). Cells were incubated at room temperature for 20 minutes and spun at 100 g for 5 minutes. The cell pellet was resuspended in plating medium [Dulbecco's Modified Eagle Medium (DMEM; Cellgro) with 17% Media 199 (Invitrogen), 15% fetal bovine serum (FBS; Invitrogen) and 1% penicillin/streptomycin solution (P/S; Invitrogen)]. Cells were counted using a hemocytometer.
Cells were plated on glass and plastic surfaces which were coated with laminin (Invitrogen; 10μg/ml in PBS) at room temperature for 1 hour prior to plating. For immunofluorescence analysis, 1×10^6 cells were seeded per well on glass coverslips in 6-well plates. For protein and RNA isolation, 2×10^6 cells were seeded in 6 cm-culture dishes. Cells were left undisturbed in plating medium at 37° C. for 72 hours and then cultured in maintenance medium (DMEM with 20% Media 199, 1% insulin-transferrin-sodium selenite solution (ITS; Sigma-Aldrich) and 1% P/S) in the presence of 100 μM 5-bromo-2′-deoxyuridine (BrdU; Sigam-Aldrich) to eliminate proliferating non-myocytes resulting in a relatively pure population of isolated cardiac myocytes (Bishopric et al., 1987). After 4 days, isolated cardiac myocytes were cultured in BrdU-containing maintenance medium in the presence of recombinant murine FGF23 (26.1 kDa, 251 amino acids; R&D Systems) or FGF2 (16.2 kDa, 144 amino acids; R&D Systems) for 48 hours.
We analyzed isolated NRVM on laminin-coated glass coverslips by immunocytochemsitry according to our established protocols (Faul et al., Cell Biol., 169(3):415-424, 2005; Faul et al., Cell Biol., 27(23):8215-8227, 2007). The mouse monoclonal antibody against sarcomeric α-actinin (EA-53; Sigma-Aldrich) was used at 1:1000 and Cy3-conjugated goat-anti mouse (Jackson Immuno Research) as secondary antibody at 1:750. To visualize nuclei, fixed cells were incubated with 4′,6-diamidino-2-phenylindole (DAPI; 400 ng/ml in PBS) for 5 minutes. Immunofluorescence images were taken on a Leica TCS-SP5 confocal microscope with a 63× oil objective with a 1.6× zoom. Leica AF6000 fluorescence software was used to measure the cell surface area based on α-actinin-positive staining.
To assess the signaling pathways involved in FGF23- and FGF2-mediated hypertrophy, we analyzed the morphometry of plated cells that were pre-treated with specific inhibitors for 60 minutes prior to the addition of the FGFs at varying concentrations.

Assay [2] concerns HEK293 cells. Kind of assay: FGF-FGFR-dependent signaling in HEK293 cells (Western blot, immunoprecipitation). Particulars: for phosphorylated PLCγ levels / phosphorylation of FRS2γ (FGF2: FRS2γ and ERK1/2): HEK293, untransfected, 30 minutes. Format: cell-based. On the procedure:
HEK293 cells were grown in 6-well plates or 10 cm-culture dishes and transiently transfected with FuGene 6 (Roche) according to the manufacturer's protocol. After 36 hours, cells were serum-starved for 12-16 hours followed by treatment with FGF23 or FGF2 at 25 ng/ml for 15 or 30 minutes.
HEK293 cells, NRVM or NMVM were treated with growth factors for 30 minutes to analyze activation of signal transduction mediators, or for 48 hours to analyze expression levels of hypertrophic marker proteins. Cells were scraped from 6-well plates using 500 μl CHAPS extraction buffer (20 mM Tris-HCl pH7.5, 500 mM NaCl, 0.5% CHAPS, protease inhibitor cocktail (Roche), protein phosphatase inhibitors [Sigma-Aldrich]) and incubated on ice for 30 minutes. The cell lysate was centrifuged at 14,000 rpm and 4° C. for 30 minutes, and the supernatant boiled in sample buffer and analyzed by SDS-PAGE and immunoblotting. For protein extraction from mouse hearts, tissue was isolated, minced and homogenized in RIPA extraction buffer (50 mM Tris-HCl pH 7.5, 200 mM NaCl, 1% Triton X-100, 0.25% DOC, 1 mM EDTA, 1 mM EGTA, protease and phosphatase inhibitors) at 1:10 (w:v), and protein lysates were prepared as described above.
Antibodies to β-MHC (NOQ7.5.4D; Sigma-Aldrich; 1:1,000), RCAN1 (rabbit polyclonal, provided by Timothy McKinsey, University of Colorado, Denver, Colo. (Harrison et al., 2004); 1:1,000), FGFR4 (C-16; Santa Cruz; 1:1,000), total and phospho-ERK1/2 (Cell Signaling; 1:1,000), total and phospho-FRS2α (Santa Cruz 1:1,000; Cell Signaling; 1:1,000), total and phospho-PLCγ (Cell Signaling; 1:1,000), FLAG (M5, Sigma-Aldrich; 1:10,000), V5 (Sigma-Aldrich; 1:10,000) and GAPDH (Abcam; 1:10,000) were used as primary antibodies in 5% milk in TBST (RCAN1, FGFR4, FLAG, V5), 5% BSA in TBST (phospho-FRS2α) or 1.5% FBS in TBS (β-MHC, total and phospho-ERK1/2, total FRS2α, total and phospho-PLCγ, GAPDH) for 1-2 hours. Horseradish peroxidase-conjugated goat-anti-mouse and goat-anti-rabbit (Promega; 1:10,000) were secondary antibodies.
HEK293 cells in 10 cm-dishes were treated with growth factors for 30 minutes, cells were scraped using 1 ml IP buffer (50 mM Tris-HCl pH7.5, 150 mM NaCl, 5 mM MgCl2, 2 mM EGTA, 1% Triton X-100, 5% Glycerol, protease and phosphatase inhibitors), and protein lysates were prepared as described above. V5-tagged proteins were immunoprecipitated using 25 μl of anti-V5 agarose beads (Sigma-Aldrich). After 5 washes in IP buffer, proteins were eluted in 100 μl of sample buffer and analyzed by SDS-PAGE and immunoblotting. For endogenous immunoprecipitation studies from NRVM, cells in 10cm-dishes were treated with growth factors for 30 minutes. Some cells were pre-treated with FGFR4 blocking antibody at 10 μg/ml for 1 hour (human monoclonal, U3-11; U3Pharma). Cells were scraped in 1 ml RIPA buffer, and protein lysates were incubated with 2 μg of anti-FGFR4 (C-16; Santa Cruz) or anti-GFP (Clonetech) as negative control at 4° C. under rotation overnight. We added 50 μl of a 1:1 mix of Protein A on sepharose beads and Protein G on agarose beads that were previously equilibrated in RIPA buffer, followed by incubation at 4° C. under rotation for 2 hours, protein elution in sample buffer, and SDS-PAGE and Western blot analyses.
In general terms: Immunoblotting shows a protein as a band on a membrane.

As to `CCN(CC)CCCCNc1ncc2cc(-c3cc(OC)cc(OC)c3)c(NC(=O)NC(C)(C)C)nc2n1` [PD173074], the “FGF2-induced increase in cell surface area (hypertrophy) in presence of inhibitor” value in assay [1] (48 h FGF2, inhibitor pre-treated 60 min at Table 2 concentration) is on record as “completely blocked”. Also, the “FGF23-induced increase in cell surface area (hypertrophy) in presence of inhibitor” value in assay [1] (48 h FGF23, inhibitor pre-treated 60 min at Table 2 concentration) is “completely blocked”.

B1: FGF2: recombinant mouse FGF2 (Ala11-Ser154) (R&D Systems) (protein)
chain: ALPEDGGAAFPPGHFKDPKRLYCKNGGFFLRIHPDGRVDGVREKSDPHVKLQLQAEERGVVSIKGVCANRYLAMKEDGRLLASKCVTEECFFFERLESNNYNTYRSRKYSSWYVALKRTGQYKLGSKTGPGQKAILFLPMSAKS
Consider B1, for which the cell surface area result in assay [1] was “significant increase”. In addition, the “FGF2-mediated FRS2α/Ras/MAPK signaling” value in assay [2] (HEK293, presence or absence of α-klotho or β-klotho) is “unaffected”. Moreover, in assay [2], the “phosphorylated PLCγ levels” value is “had no effect”; the “phosphorylation of FRS2γ (FGF2: FRS2γ and ERK1/2)” value is “increased”.

B2: FGF23: recombinant mouse FGF23, 6His-tagged Tyr25-Val251 (Arg179Gln) (R&D Systems) (protein)
chain: YPDTSPLLGSNWGSLTHLYTATARTSYHLQIHRDGHVDGTPHQTIYSALMITSEDAGSVVITGAMTRRFLCMDLHGNIFGSLHFSPENCKFRQWTLENGYDVYLSQKHHYLVSLGRAKRIFQPGTNPPPFSQFLARRNEVPLLHFYTVRPRRHTQSAEDPPERDPLNVLKPRPRATPVPVSCSRELPSAEEGGPAASDPLGVLRRGRGDARGGAGGADRCRPFPRFV
modifications: left off: small tags and cut ends
B2: the cell surface area result in assay [1] is “significant increase”. For the same molecule, in assay [2], the “phosphorylated PLCγ levels” value is listed as “increased”; the “phosphorylation of FRS2γ (FGF2: FRS2γ and ERK1/2)” value was “did not induce”. Moreover, the phospho-PLCγ levels entry in assay [2] (HEK293 overexpressing FGFR4Arg385, 30 minutes) is on record as “further increased”. The ERK1/2 phosphorylation entry in assay [2] (HEK293 overexpressing V5-tagged FGFR4) was “does not increase”. In addition, the “phosphorylation of PLCγ” value in assay [2] (HEK293 overexpressing ectopic β-klotho) is “induced phosphorylation”. The “FGFR isoform binding to PLCγ (co-precipitation)” value in assay [2] (HEK293 transfected with V5-tagged FGFR1-4, 30 minutes) is given as “only FGFR4 bound PLCγ”. In assay [2] (HEK293 transiently expressing FLAG-tagged klotho), the “levels of phospho-ERK and Egr-1” value is “increased levels”. Further, in assay [2] (HEK293 with ectopic α-klotho), the “activation of PLCγ” value is given as “did not activate”; the “phosphorylation of FRS2α and ERK1/2” value is “increased”.
